Target: the molecule itself
Test: SEC dimerization assay (FIG. 4A)

B1: BAX 4MA (C62S, C126S, V121C, I136C), internally cross-linked mutant (other)
chain: MDGSGEQPRGGGPTSSEQIMKTGALLLQGFIQDRAGRMGGEAPELALDPVPQDASTKKLSESLKRIGDELDSNMELQRMIAAVDTDSPREVFFRVAADMFSDGNFNWGRVVALFYFASKLCLKALSTKVPELIRTCMGWTLDFLRERLLGWIQDQGGWDGLLSYFGTPTWQTVTIFVAGVLTASLTIWKKMG
modifications: internal cross-link between the introduced cysteines (V121C, I136C), reduced by DTT
notes: also called BAX 4MA dimer; 4MA monomer
Question: Does B1 bind?
Answer: binds
